Reference: the supplement of paper PMC9170038

Test system: MS2 coat protein
Assay: apparent KD of MS2 coat protein; designed switch direction (-1 OFF switch, 1 ON switch): -1; higher = weaker reporter binding
How it was run: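 For each design, the apparent KD is the median over clusters of curves fitted to normalised cluster fluorescence. Clusters held RNA switches with common flanks, transcribed on Illumina chips by stalled E. coli RNA polymerase. These were titrated with SNAP-549-labelled MS2 coat protein, doubling from 0.7 or 1.5 nM to 3 µM, without input, with 200 uM small-molecule ligand, or with an oligonucleotide input.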

[1] = input ligand: microRNA oligo, concentration not stated
[2] = Eterna round: R95, input ligand: FMN 200 uM
[3] = Eterna round: R95, input ligand: microRNA oligo, concentration not stated
[4] = Eterna round: R95, input ligand: none

Row | Sequence | apparent KD of MS2 coat protein (input ligand: FMN 200 uM) | apparent KD of MS2 coat protein (input ligand: none) | apparent KD of MS2 coat protein [1] | apparent KD of MS2 coat protein [2] | apparent KD of MS2 coat protein [3] | apparent KD of MS2 coat protein [4]
1 | CGUUGCAGAGGAUAUACAUGAGGAUCACCCAUGUGAAAUUAUAGUGAGGAAAUGAAAAGUAGAAGGCUGUGACA [Mod of Mat 11 - Jieux - Exclusion 3] (Eterna round: R97, puzzle: Exclusion 3) | 267 nM | 47.3 nM | – | – | – | –
2 | GGUCGGCGAGGAUAUACAUGAGGAUCACCCAUGUGAUAGAUUAUCGCGAAAGCGUAAUGUAGAAGGCGCUGACG [jl-ex3-4.10 jl mod] (Eterna round: R97, puzzle: Exclusion 3) | 1280 nM | 40.7 nM | – | – | – | –
3 | ACAUGCCUUGCAGGAUAUAGGACACAUGAGGAUCACCCAUGUGGUUUCAUGUCUAACCAAGCGUCCUAGAAGGGCGGGAACAUG [Ex NG2 #28] (Eterna round: R96, puzzle: Exclusion NG 2) | 44.9 nM | 36.5 nM | 25.8 nM | – | – | –
4 | AGAAGUAGCAACCGAUCCUACAUGAGGAUCACCCAUGUAGCAAGACGUGCACGCGAAGCUCGUCAGACUACCAGAUG [salish99_TOv1_r3_022] (puzzle: Sensor v3, turn-off variant 1) | – | – | – | 216 nM | 210 nM | 168 nM
5 | AAAAAACAUGAGGAUCACCCAUGUCAGGAUAUCCGAAAAGAAAAAUAAAAAGAAAAAGGGAGAAGGGACAAAAA [April's ex-date #3] (puzzle: Exclusion 1) | – | – | – | 45.6 nM | 48.6 nM | 61.3 nM
6 | AGAUCCACCGAGGAUAUUGGAGUGAUAUCACUCUAAGAAGGCGGUACAUGAGGAUCACCCAUGUGAUACCCAGA [Eternabot (Original) Solution 15] (Eterna round: R97, puzzle: Exclusion 6) | 551 nM | 316 nM | – | – | – | –
7 | GUUUAGUGAGGAUAUGUGGCUUCGAUCGUGAGAUCGAGGCUACAGAAGGCACAUGAGGAUCACCCAUGUUCCUC [salish99_ex4_r4_104] (Eterna round: R97, puzzle: Exclusion 4) | 516 nM | 38.9 nM | – | – | – | –
8 | GGUACUCAAAGAGUACCAAUACGAACAUGAGGAUCACCCAUGUAGGAUAUGCUACUCAAAGAGUAGCAGAAGGAUAUGAACCUC [Far Half Aptamer v10] (Eterna round: R96, puzzle: Exclusion NG 3) | 407 nM | 227 nM | 204 nM | – | – | –
9 | AAACUACUUGGGCUGACACAUGAGGAUCACCCAUGUGGAGGGCAGGAUAUGCCCAUAAAAUUGGCGCAGAAGGGCCCACGUAGA [Tegesousbe] (Eterna round: R96, puzzle: Exclusion NG 3) | 17.1 nM | 13.9 nM | 6.89 nM | – | – | –
10 | ACAAGCUUUUAGAUUUUCAACAUGAGGAUCACCCAUGUUCGUCUUAUGCUAGUGCUAGUGCGGUGUACUGGUAUUAG [JL TOV1 3.80 sellena mod] (Eterna round: R97, puzzle: Sensor, turn-off variant 1) | 16.9 nM | 16 nM | – | – | – | –
11 | AGCAUGUUAGGAUAUGCCAAAAUUAACCACGACUCAGUGAUGCAGAAGGAACAUGAGGAUCACCCAUGUGCUCC [Eternabot (L1) Solution 16] (Eterna round: R97, puzzle: Exclusion 4) | 219 nM | 38.2 nM | – | – | – | –
12 | UUUAUAUAGUAAGGAUAUGUAUUAUUUCUAUCAACAGAAGGUACUGACAUGAGGAUCACCCAUGUUUUAGUGUGGGCAUGUAGU [JMF's solution 97] (Eterna round: R96, puzzle: Exclusion NG 1) | – | – | 200 nM | – | – | –
13 | GGCACACAUGAGGAUCACCCAUGUGAGGAUAUGCUGCGAUCGUCGAUAGACGAUAGCAGUAGAAGGCACAUGCC [Mat - Exclusion 1 - Eli Mod - D7] (Eterna round: R97, puzzle: Exclusion 1) | 25.9 nM | 19.1 nM | – | – | – | –
14 | CUUUUGUGAGGAUAUCAGUAGUAAAUAAAUAAAUUUACUACUGAGAAGGCACAUGAGGAUCACCCAUGUUCCUC [salish99_ex3_r3_084] (puzzle: Exclusion 4) | – | – | – | – | 45.4 nM | –
15 | AACAAGCUUUAAAGAUCCUACAUGAGGAUCACCCAUGUGCUCGUCUUGUAACGUACUGUGACGAAAGUCACGGUACG [JL TOV1 3.27] (Eterna round: R97, puzzle: Sensor, turn-off variant 1) | 205 nM | 278 nM | – | – | – | –
16 | ACAUGAGGAUCACCCAUGUCCGGCUGGUCCGUCUCGGCUGUCGAGGAUAUAGCUCGGUAUCCGCGCUAGAAGGCGGGAGCCGGA [Aenatbe mod 84] (Eterna round: R96, puzzle: Exclusion NG 3) | 45.3 nM | 44.4 nM | 29.1 nM | – | – | –
17 | UUUUCAUAUGAAGGAUAUACUUAACAUGAGGAUCACCCAUGUGGUGUUGUGAGUGAGUGAGUUUAGUAGAAGGUCAAGUAUUUU [JMF's solution 48] (Eterna round: R96, puzzle: Exclusion NG 2) | 805 nM | 304 nM | 304 nM | – | – | –
18 | GUGUACGGAGGAUAUAUGUGGGCAGCAUACGCUGCAGCUUCACAUGAGGAUCACCCAUGUAGAAGGCUGUGCAC [JL-ex2-2.11 Brourd mod] (puzzle: Exclusion 2) | – | – | – | – | 20.1 nM | –
19 | UCUCGCUGGCGAGGAUAUCCUGUGCGGUUCCGGCUCGUGUCUGUUACAUGAGGAUCACCCAUGUGGGAGAAGGUGCCUGUGGCC [Design 95] (Eterna round: R96, puzzle: Exclusion NG 2) | 21.1 nM | 21 nM | 15.6 nM | – | – | –
20 | CGUUGGAAAGGAUAUACAUGAGGAUCACCCAUGUGAAAUUAUAGUGAGGAAAUGAAAAGUAGAAGGUUCUGACA [Mod of Mat 6 - Jieux - Exclusion 3] (Eterna round: R97, puzzle: Exclusion 3) | 61.2 nM | 25 nM | – | – | – | –
21 | GAUCAUGCAGGAUAUACAUGGAACAUGAAAACAUGAAUUUCACAUGAGGAUCACCCAUGUAGAAGGGCAUGAUC [Omei Ex2 A12] (Eterna round: R97, puzzle: Exclusion 2) | 54.2 nM | 579 nM | – | – | – | –
22 | AGAAAAGCCCAUGACCGCAAGCUUUUUGCUUGUCUUACCACAUGAGGAUCACCCAUGUGACAUGGGCUCCUUAUAAU [Atcein] (puzzle: Sensor v3, turn-off variant 2) | – | – | – | 13.2 nM | 10.2 nM | 11.1 nM
23 | GGGCAGUCAGGAUAUACAUGAGGAUCACCCAUGUUGAGAUGUGAAAGGGCGGGAGUAGGUAGAAGGGACGAGAG [JR_Exclu3_Sub041] (puzzle: Exclusion 3) | – | – | – | 27.4 nM | 22.8 nM | 29.9 nM
24 | UUAAUUACGGUGCUUUAACCUCACAUGAGGAUCACCCAUGUGCAGGAUAUCAGCUCGUUUAGAGCUGAGAAGGGCACUGCACCG [ExNG3/11-A2] (Eterna round: R96, puzzle: Exclusion NG 3) | 13.9 nM | 13.5 nM | 8.87 nM | – | – | –
25 | GUCCUCUUGACAUGAGGAUCACCCAUGUUUUAUUUGUUAACUGAGGAUAUACUCUUAUUUUUUAUGUAGAAGGCAGUUUUGUUC [JR_ExcNG3_Sub023] (Eterna round: R96, puzzle: Exclusion NG 3) | 82.6 nM | 26.3 nM | 22 nM | – | – | –
